Legend:
[1] = target: T1, BSA (Sigma-Aldrich) (bovine, UniProt P02769 25-607); assay: direct ELISA
T1 construct: also called bovine serum albumin

[2] = target: T2, JCV VP1 VLP (JC virus (JCV), Mad-1 strain, UniProt P03089 1-354); assay: direct ELISA
T2 construct: also called JCV VP1 VLPs; JCV VP1 (coating with reassociation buffer)

[3] = target: T3, JCV VP2 protein (Bioclone Inc) (JC virus (JCV), UniProt P03095 1-344); assay: direct ELISA, antigens coated at 1 µg/mL; bar groups labelled 100 nM, 20 nM, 4 nM, 0.8 nM
T3 sequence (looked up): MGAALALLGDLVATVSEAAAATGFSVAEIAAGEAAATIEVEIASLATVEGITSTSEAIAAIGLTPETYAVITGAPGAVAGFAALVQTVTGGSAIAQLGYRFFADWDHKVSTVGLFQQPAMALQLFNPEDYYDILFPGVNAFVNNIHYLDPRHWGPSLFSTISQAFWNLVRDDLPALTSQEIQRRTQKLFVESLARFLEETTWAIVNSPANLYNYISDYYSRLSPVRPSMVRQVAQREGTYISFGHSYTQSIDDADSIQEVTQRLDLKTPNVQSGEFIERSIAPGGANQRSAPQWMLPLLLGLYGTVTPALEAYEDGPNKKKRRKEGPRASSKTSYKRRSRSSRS

[4] = target: T4, JCV VP3 protein (Bioclone Inc) (JC virus (JCV), UniProt P03095 120-344); assay: as above
T4 sequence: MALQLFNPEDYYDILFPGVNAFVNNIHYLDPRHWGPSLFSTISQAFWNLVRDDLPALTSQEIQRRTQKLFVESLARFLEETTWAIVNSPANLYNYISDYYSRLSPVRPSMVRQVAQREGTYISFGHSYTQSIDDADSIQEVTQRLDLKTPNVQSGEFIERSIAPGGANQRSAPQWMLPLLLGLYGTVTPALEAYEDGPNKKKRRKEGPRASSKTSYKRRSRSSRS

[5] = target: T2, JCV VP1 VLP; assay: direct ELISA, plate coated with antigen at 5 µg/ml in reassociation buffer (VLP); EC50 by non-linear regression (GraphPad Prism)
[6] = target: T5, VP1 GCN (N74S R75K T128A L158V K345R Q350deletion T351deletion) (JC virus (JCV), UniProt P03089 1-354); assay: flow cytometry, transfected 293TT cells
T5 construct: whole, on cells

[7] = target: JCV (JC virus produced by infected SVG-A cells) (JC virus (JCV), UniProt P03089 1-354); assay: cell-based or functional assay
[8] = target: T2, JCV VP1 VLP; assay: direct ELISA, plate coated with antigen at 5 µg/ml in reassociation buffer (VLP); EC50 by non-linear regression (GraphPad Prism); remark: listed apart in the source

T1 sequence (P02769 25-607 limits assumed): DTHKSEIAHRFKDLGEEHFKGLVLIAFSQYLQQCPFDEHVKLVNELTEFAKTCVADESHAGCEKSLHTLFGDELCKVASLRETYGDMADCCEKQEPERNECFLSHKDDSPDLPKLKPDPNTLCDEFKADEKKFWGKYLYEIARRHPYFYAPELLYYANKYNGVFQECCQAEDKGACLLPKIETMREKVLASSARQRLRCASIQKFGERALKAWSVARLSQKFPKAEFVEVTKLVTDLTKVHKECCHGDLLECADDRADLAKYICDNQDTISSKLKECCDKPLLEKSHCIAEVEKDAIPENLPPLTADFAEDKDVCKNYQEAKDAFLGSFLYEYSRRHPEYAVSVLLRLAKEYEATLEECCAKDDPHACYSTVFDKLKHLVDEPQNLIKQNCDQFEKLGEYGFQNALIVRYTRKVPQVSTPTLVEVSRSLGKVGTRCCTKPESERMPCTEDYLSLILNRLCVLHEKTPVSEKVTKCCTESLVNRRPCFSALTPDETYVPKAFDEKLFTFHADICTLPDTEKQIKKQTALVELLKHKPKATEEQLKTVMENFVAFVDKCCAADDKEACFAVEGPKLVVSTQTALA

B1: NI-307.57D5 (antibody, V domains shown)
VH: EVQLVESGGGLAQPGGSLRLSCAGSGFTLSDFAMSWVRRAPGKGLEWVSSLTPSGRNSFYSDSVKGRFTISRDNWKNTLYLEMNLLRPEDTAVYYCARPGAPKNSDSKYSYVRVDFQHWGQGTLVTVSS
VL: NFMLTQPHSVSESPGRTVTISCTRSSGSIANNFVQWYQHRPGSAPTTLIYEDDQRPSGVPDRFSGSVDSFSNSASLTISGLKTEDEADYFCQSYDNHNWVFGGGTTLTVL
With B1 the binding result [1] was “no binding” and the EC50 [2] was 57 nM.

B2: NI-307.24C6 (antibody, V domains shown)
VH: QLQLQESGPGLVKPSGTLSLICVVSGSSIRSNIWWWNWVRQSPGKGLEWIGEIYHSGSTNYSPSLKSRVTMSVDNSKNQFSLKMSSVTAADTAVYFCAINTRTSISGVLYDTFDVWGQGTMVTVSS
VL: EIVLTQSPATLSLSSGERATLSCRASQSVSGYLAWYQQKPGQAPRLLIYDGSNRATGIPARFSGSGSGTDFTLTISSLEPEDFAVYYCQHRSNWPMYTFGQGTKLEIK
In the case of B2, the binding result [1] is reported as “no binding” and the EC50 [2] is reported as 2.84 nM.

B3: NI-307.25G10 (antibody, V domains shown)
VH: EVQLVESGGGLVQPGGSLRLSCVASGIIFKDYDFHWVRQVKEKGLEWVSAIGTAGDPYYAASVKGRFTVSRENGKNSVYLRMNNVGAGDTALYYCTSGNYFDRGSFRPSAFDMWGQGTMVTVSS
VL: EIVLTQSPGTLSLSPGERATLSCWASQSVSSNYLAWYQHKPGQAPRLLIFRASRRATDIPERFSAGGSGTDFTLTISRLEAEDSAVYYCQEYGSAPPASITFGQGTRLEIK
B3: no binding (tested: 100 nM) [3]; no binding (tested: 100 nM) [4]; no binding [1]. The EC50 [2] was 0.509 nM.

B4: NI-307.18F4A (antibody, V domains shown)
VH: EVQLVESGGGLVKPGGSLRLSCAASGFTFTNYYMTWVRQAPGKGLEWVSYITGGGSTTYYADSVTGRFTISRDNAKNSLYLQMSSLRVEDTAVYYCARGRGYPDNWFDPWGQGTLVTVSS
VL: SYVLTQPPSVSVSPGQTARITCSGDALPKQYVYWYQQKPGQAPVLMIYKDAERPSGIPDRFSGSSSGTTVTLTISGVQAEDEADYYCQSTDISGAAVVFGGGTKLTVL
In the case of B4, the binding result [1] is reported as “no binding” and the EC50 [5] is reported as 55 nM.

B5: NI-307.58C7 (antibody, V domains shown)
VH: EVQLVESGGGLVKPGGSLRLSCAASGFTFSDYYVNWIRQAPGKGLEWVACISSSGRTIHYADSVKGRFTISRDNAKNSLYLQMNSLRAEDTAFYYCARDLDKAATGRPYFDYWGQGTLVTVSS
VL: not shown
B5: binds [6].

B6: NI-307.5H3 (antibody, V domains shown)
VH: QVQLQESGPGLLKPLGTLSLICDVSGDSISSSNWWSWVRQSPRKGLEWIGEIYHSGRTNYNPSLTNRVTISVDKSKNQFSLNLNSVTAADTGVYYCARWDYYYNNDYYIRGFDIWGQGTMVTVSS
VL: EIVLTQSPGILSLSPGERATLSCRASQSVDSNYLAWYQQKPGQAPRLLIYSTSTRAAGVPDRFSGSGSGTDFALTISGLEPEDFAVYYCQQWGGSPPITFGQGTRLEIK
In the case of B6, the binding result [1] is reported as “no binding” and the EC50 [2] is reported as 1.16 nM.

B7: NI-307.61D11 (antibody, V domains shown)
VH: EVQLVQSGAEVKKPGASVKVSCKTSGYTFIGHYMQWVRQVPGQGFEWMGWINPNTGTTKYALKFKDRVTVTRDTSTATVYMEFHGLTSDDTAVYYCARASAYQLANYDYWGQGTLVTVSS
VL: QSALTQPASVSGSPGQSITISCAGTSNDVGDDDFVSWYQHQPGKAPRLMIYEVTNRPSGVSTRFSGSKSGNTASLTISGLQAEDEGDYYCMSYTKNSALGYVFGGGTKVTVL
In the case of B7, the binding result [1] is reported as “no binding” and the EC50 [5] is reported as 17.7 nM.

B8: NI-307.44F6B (antibody, V domains shown)
VH: EVQLVESGGSVVRPGGSLRLACEVSGLRFDDFAMSWVRQVPGKGLEWIAGIFWNSGGTLYADSVKGRFTISRDNAENSLYLQMNSLRAEDTALYRCVRGRSHAAYYGMDVWGKGTTVTVSS
VL: EIVLTQSPLSLPVTPGEPASISCRSSQSLLHSNGYNYLDWYLQKPGQSPQLLIYLGSNRASGVPDRFSGSGSGTDFTLTISRVEAEDVGIYYCMQALQNALAFGGGTKLEIK
B8 was tested, and the binding result [1] was “no binding” and the EC50 [2] was 0.083 nM.

B9: NI-307.19F8 (antibody, V domains shown)
VH: EVQLVESGGGLVKPGGSLRLSCAASGFTFSSYYMNWVRQAPGKGLEWVSSISSSSSYIYYADSVKGRFTISRDNAKNSLYLQMNSLTAEDTAVYYCARDPRLQLWFMFDYWGQGTLVTVSS
VL: QPVLTQPPSASASLGASVTLTCTLSSGYSNYKVDWYQQRPGEGPRFVMRVGTGGIVGSKGDGIPDRFSVLGSGLNRYLTIKDIQEEDESDYHCGADHGSGSNFVYVFGTGTKVTVL
B9: no binding (tested: 100 nM) [3]; no binding (tested: 100 nM) [4]; no binding [1]. It also gave an EC50 [5] of 6.68 nM.

B10: NI-307.18E12 (antibody, V domains shown)
VH: QVQLQQWGAGLLKPSETLSLTCAVYGDSFSGFFWAWIRQTPGTGLEWIGEIQHGGSPTYNPSFESRLTISTDASKSQVSLKMTSVTVTDTAIYYCARCIRGKYGSGSLQLWSQGTLVTVSS
VL: DIQLTQSPSFLSASVGDRVTITCRASQDINYHLAWYRQKPGKAPDLLIHSAHTLHIGVSSRFSGSGSGTEFTLTIHTLQPEDFATYYCHQPKTFPPTFGGGTKVDIK
In the case of B10, the binding result [1] is reported as “no binding” and the EC50 [5] is reported as 19.9 nM.

B11: NI-307.78C3 (antibody, V domains shown)
VH: QVQLQESGPGLVKPSGTLSLTCTVSGGSISGRIWWSWVRQPPGKGLEWIGEIYHSGSTNYSPSLRGRVTISVDTSKQHFSLKMTSVTAADTAMYYCVRGELALGFDSWGQGTLVTVSS
VL: QSALTQPPSASGSPGQSVTISCTGTSSDVGGYNSVSWYQQHPRRAPKLMIYEVSKRPSGVPDRFSGSKSGNTASLTVSGLQADDEAHYYCSSYAGSNNLVFGGGTMLTVL
B11 was tested, and the binding result [1] was “no binding” and the EC50 [2] was 0.932 nM.

B12: NI-307.98D3 (antibody, V domains shown)
VH: EVQLVESGGGVVQPGRSLRLSCAASGFTFSSSAMHWVRQAPGKGLEWVAVISYDGNNQLYADSVKGRLTISRDNSKNALYLQLNSLRTEDTAVYFCARDGGGYSFGTYFFDFWGQGTLVTVSS
VL: DIQMTQSPSSLSASVGERVTITCRASQRISNYLNWYQQKPGKAPKLLIYAASTLQSGVPSRFSGSGSGTDFTLTISSLQPEDFATYYCQQSYSSPPTFGPGTKVDIK
With B12 the “IC50 of neutralization of the JCV infection of SVG-A cells” value [7] was 0.8 ng/mL and the EC50 [8] was 0.00057 nM.

B13: NI-307.43A11 (antibody, V domains shown)
VH: QVQLQESGPGLVKPSGTLSLTCAVTGGSISSSNWWSWVRQSPGKGLEWIGEIHHDGNLNYNPLLKSRVSMSLDRSKNQFSLKLTSVTAADTAVYYCARWDFFFDSSYYIRGFDLWGQGTMVTVSS
VL: ETTLTQSPGTLSLSPGERVTLSCRASQSVDRNYLAWYQQKPGQSPRLLIYSASRRATGIPDRFSGSGSGTDFTLTISRLEPEDFVVYYCQQYGGSPPITFGQGTRLEIK
With B13 the binding result [1] was “no binding” and the EC50 [2] was 6.15 nM.

B14: NI-307.26E10 (antibody, V domains shown)
VH: EVQLVESGGGLVLPGGSLRLSCAVSGFTVRNEYMRWARQAPGRGLEWVSVIYRDGQTHHADTVKGRFDVSKDTSKNTMYLQMHNLRVDDTAIYYCARGHYGPWGQGTLVTVSS
VL: DIQMTQSPSTLPASVGDRVTITCRASQSINNWLAWYQQKPGKAPNLLIYDASNLETGVPSRFSGSGSGTEFTLTISSLQPDDFATYYCQQYNSHSHTWTFGQGTKVEIK
B14: no binding (tested: 100 nM) [3]; no binding (tested: 100 nM) [4]; no binding [1]. For the same binder, the EC50 [2] was 14.9 nM.
